T1: amphyphisin SH3 (AMPH_HUMAN), P49418
T1 chain: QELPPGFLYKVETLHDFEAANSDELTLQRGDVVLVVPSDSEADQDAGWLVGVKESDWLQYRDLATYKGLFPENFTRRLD

B1: Q9BXQ5 597-610 (peptide)
chain: SEPHIKRPMNAFMV
B2: Q9Y4G2 445-458 (peptide)
chain: SEDDFYRPSREQPL
B3: Q96MG2 305-318 (peptide)
chain: AWVSPRRPDEEQRP
B4: Q9NQ53 86-99 (peptide)
chain: SDREPTRPPRPILQ
B5: Q9BYH1 392-405 (peptide)
chain: SSNFPRRPDSGDVT
B6: Q9P2Q1 364-377 (peptide)
chain: SSRAPPRPAKTTDP
B7: Q9H6A9 133-146 (peptide)
chain: SFLTLTRPDRALVR
B8: P09529 57-70 (peptide)
chain: SSGGFRRPEELGRV
B9: Q9H677 423-436 (peptide)
chain: SEAAPRRPEATAAP
B10: Q96JP2 1105-1118 (peptide)
chain: SDSKPKRPQPSREI
B11: Q16322 147-160 (peptide)
chain: SGGKIRRPANVPID
B12: Q9Y6H5 853-866 (peptide)
chain: SGDQLKRPFGAFRS
B13: Q08043 87-100 (peptide)
chain: SGERLPRPDKGKMR
B14: O15229 449-462 (peptide)
chain: SFLSLRRPWNWIAH
B15: Q9UL65 458-472 (peptide)
chain: SSTPPPRPPVLEEW
B16: Q9BZH6 185-199 (peptide)
chain: SDFSPSKPPSGPGK
B17: P98161 2194-2207 (peptide)
chain: SSQRPGRPARVALP
B18: O95428 427-441 (peptide)
chain: SAGLPGKPPAIQAS
B19: Q9BT81 41-54 (peptide)
chain: SESRIRRPMNAFMV
B20: O14810 90-103 (peptide)
chain: SEGSLTRPKKAIPP
B21: P22459 237-250 (peptide)
chain: SGGRLKRPVNVPFD
B22: Q96T17 281-294 (peptide)
chain: SGGIPKRPSSPVIS
B23: Q9ULT6 127-140 (peptide)
chain: SEDPLKRPVVYVKG
B24: O43190 163-176 (peptide)
chain: SFSHLKRPQQGAGN
B25: Q03519 474-487 (peptide)
chain: SFAYPNRPDRPVLK
B26: Q13370 310-323 (peptide)
chain: SSKIFRRPSLPSIS
B27: Q12882 910-923 (peptide)
chain: SSFIPKRPIPTIKD
B28: Q9UGJ0 207-221 (peptide)
chain: SFQSPTRPPLASPT
B29: P22001 113-126 (peptide)
chain: SGGRIRRPVNVPID
B30: Q9Y3X0 319-333 (peptide)
chain: AWARPPKPPTFGEF
B31: Q9H254 103-116 (peptide)
chain: SGEQLPRPTRGRMR
B32: O95978 26-39 (peptide)
chain: SGAEIKRPGASVKV
B33: O76050 230-243 (peptide)
chain: SFTALRRPSLRREA
B34: P54259 267-281 (peptide)
chain: SGAPPTKPPTTPVG
B35: Q9H1Y5 130-143 (peptide)
chain: SFLRLRRPWNWIAH
B36: P28907 274-287 (peptide)
chain: SSKNIYRPDKFLQS
B37: Q9BTX9 18-31 (peptide)
chain: AWQQLRRPEASETL
B38: O00529 218-231 (peptide)
chain: SFSELVRPFKSNKS

The first experiment deals with T1, amphyphisin SH3 (AMPH_HUMAN), P49418. Kind of experiment: SPOT array.
As to B1, the normalised SPOT signal, Boehringer light units (BLU); mean over the file's lines of this peptide came out at 32.
Still for that read-out and setting: to B2 belongs 142; to B3, 57.9.
Same read-out and setting: to B4 belongs 3890.
Same read-out and setting: the same measure for B5: 29.9; for B6: 378; for B7: 894.
For the molecule B8, the normalised SPOT signal, Boehringer light units (BLU); mean over the file's lines of this peptide is 41.8.
Consider B9, for which the normalised SPOT signal, Boehringer light units (BLU); mean over the file's lines of this peptide was 26.1.
On the same count and under the same terms, the same measure for B10: 13.6.
B11: the normalised SPOT signal, Boehringer light units (BLU); mean over the file's lines of this peptide amounted to 0.
Still for that read-out and setting: the same measure for B12: 20.6.
On the same count and under the same terms, to B13 belongs 91.2.
In turn, B14 displayed a normalised SPOT signal, Boehringer light units (BLU); mean over the file's lines of this peptide of 57.7.
In turn, B15 registered a normalised SPOT signal, Boehringer light units (BLU); mean over the file's lines of this peptide of 29.8.
In the case of B16, the normalised SPOT signal, Boehringer light units (BLU); mean over the file's lines of this peptide is 52.
On the same count and under the same terms, the same measure for B17: 2220.
On to B18, for which the normalised SPOT signal, Boehringer light units (BLU); mean over the file's lines of this peptide came to 42.4.
The same measure, in the same setting: to B19 belongs 0; to B20, 0.
Still for that read-out and setting: to B21 belongs 11.4; to B22, 46.1; to B23, 21.3.
The same measure, in the same setting: the same measure for B24: 26.3; for B25: 1280.
In turn, B26 yielded a normalised SPOT signal, Boehringer light units (BLU); mean over the file's lines of this peptide of 12.2.
In the case of B27, the normalised SPOT signal, Boehringer light units (BLU); mean over the file's lines of this peptide was found to be 17.6.
B28 had a normalised SPOT signal, Boehringer light units (BLU); mean over the file's lines of this peptide of 27.7.
The same measure, in the same setting: to B29 belongs 29; to B30, 21.8; to B31, 873.
Regarding B32, the normalised SPOT signal, Boehringer light units (BLU); mean over the file's lines of this peptide was found to be 34.4.
The same measure, in the same setting: the same measure for B33: 65.1.
In turn, B34 had a normalised SPOT signal, Boehringer light units (BLU); mean over the file's lines of this peptide of 41.3.
In the case of B35, the normalised SPOT signal, Boehringer light units (BLU); mean over the file's lines of this peptide came out at 120.
Still for that read-out and setting: the same measure for B36: 34.
Same read-out and setting: the same measure for B37: 29.3.
The same measure, in the same setting: to B38 belongs 32.8.

The target of another experiment is endophilin SH3 (SH3G2_HUMAN), Q99962. Kind of experiment: SPOT array.
The molecule B1 gave a normalised SPOT signal, Boehringer light units (BLU); mean over the file's lines of this peptide of 63.7.
For B2, the normalised SPOT signal, Boehringer light units (BLU); mean over the file's lines of this peptide amounted to 92.5.
The same measure, in the same setting: the same measure for B3: 398; for B4: 52.9.
B5 had a normalised SPOT signal, Boehringer light units (BLU); mean over the file's lines of this peptide of 67.7.
On the same count and under the same terms, to B6 belongs 279; to B7, 211.
The same measure, in the same setting: to B8 belongs 11.4.
The molecule B9 came in with a normalised SPOT signal, Boehringer light units (BLU); mean over the file's lines of this peptide of 16.1.
B10 gave a normalised SPOT signal, Boehringer light units (BLU); mean over the file's lines of this peptide of 44.6.
Same read-out and setting: the same measure for B11: 94.6; for B12: 75.5.
For B13, the normalised SPOT signal, Boehringer light units (BLU); mean over the file's lines of this peptide came out at 47.7.
Take B14: the normalised SPOT signal, Boehringer light units (BLU); mean over the file's lines of this peptide stood at 500.
For B15, the normalised SPOT signal, Boehringer light units (BLU); mean over the file's lines of this peptide turned out to be 110.
B16 came in with a normalised SPOT signal, Boehringer light units (BLU); mean over the file's lines of this peptide of 63.8.
Molecule B17 yielded a normalised SPOT signal, Boehringer light units (BLU); mean over the file's lines of this peptide of 13500.
Still for that read-out and setting: to B18 belongs 50.3; to B19, 32.9.
On the same count and under the same terms, the same measure for B20: 68.4; for B21: 37.8; for B22: 1080.
Consider B23, for which the normalised SPOT signal, Boehringer light units (BLU); mean over the file's lines of this peptide came to 58.8.
As to B24, the normalised SPOT signal, Boehringer light units (BLU); mean over the file's lines of this peptide stood at 32.4.
As for B25, the normalised SPOT signal, Boehringer light units (BLU); mean over the file's lines of this peptide was 245.
Consider B26, for which the normalised SPOT signal, Boehringer light units (BLU); mean over the file's lines of this peptide was 40.4.
The same measure, in the same setting: the same measure for B27: 514.
On the same count and under the same terms, to B28 belongs 161.
In turn, B29 gave a normalised SPOT signal, Boehringer light units (BLU); mean over the file's lines of this peptide of 104.
The molecule B30 gave a normalised SPOT signal, Boehringer light units (BLU); mean over the file's lines of this peptide of 716.
On the same count and under the same terms, the same measure for B31: 210; for B32: 32.7.
The molecule B33 displayed a normalised SPOT signal, Boehringer light units (BLU); mean over the file's lines of this peptide of 27.6.
Take B34: the normalised SPOT signal, Boehringer light units (BLU); mean over the file's lines of this peptide worked out at 65.4.
Still for that read-out and setting: the same measure for B35: 351.
The same measure, in the same setting: to B36 belongs 63.6.
Still for that read-out and setting: the same measure for B37: 15.9; for B38: 106.

The values above are taken from article PMC314469, “Protein Interaction Networks by Proteome Peptide Scanning” (PLoS Biology, 2004).
